We go through 20 sequences from the DeepSol protein solubility set.

This series in a line: soluble on expression in E. coli; label from the status in PepcDB or PDB records.
For the sequence “MAAASAVSVLLVAAERNRWHRLPSLLLPPRTWVWRQRTMKYTTATGRNITKVLIANRGEIACRVMRTAKKLGVQTVAVYSEADRNSMHVDMADEAYSIGPAPSQQSYLSMEKIIQVAKTSAAQAIHPGCGFLSENMEFAELCKQEGIIFIGPPPSAIRDMGIKSTSKSIMAAAGVPVVEGYHGEDQSDQCLKEHARRIGYPVMIKAVRGGGGKGMRIVRSEQEFQEQLESAWREAKKSFNDDAMLIEKFVDTPRHVEVQVFGDHHGNAVYLFERDCSVQRRHQKIIEEAPAPGIKSEVRKKLGEAAVRAAKAVNYVGAGTVEFIMDSKHNFCFMEMNTRLQVEHPVTEMITGTDLVEWQLRIAAGEKIPLSQEEITLQGHAFEARIYAEDPSNNFMPVAGPLVHLSTPRADPSTRIETGVRQGDEVSVHYDPMIAKLVVWAADRQAALTKLRYSLRQYNIVGLPTNIDFLLNLSGHPEFEAGNVHTDFIPQHHKQLLLSRKAAAKESLCQAALGLILKEKAMTDTFTLQAHDQFSPFSSSSGRRLNISYTRNMTLKDGKNNVAIAVTYNHDGSYSMQIEDKTFQVLGNLYSEGDCTYLKCSVNGVASKAKLIILENTIYLFSKEGSIEIDIPVPKYLSSVSSQETQGGPLAPMTGTIEKVFVKAGDKVKAGDSLMVMIAMKMEHTIKSPKDGTVKKVFYREGAQANRHTPLVEFEEEESDKRESE”, the “soluble on expression in E. coli” value is on record as “soluble”.

For the sequence “MRVVAFVPGSISDQILFFPTLDDLKRYYPDAQIDVIVESQSKAAYRLSKSVHEVLTFDYSDHNSLADWGNLVGTIRDREYDVAMTTGESWFIGLFLWLTGIPTRIGYKGKGAGFLTNTIRRNTSQYVAAMYHDLLKPVGIKTPCPELTANVPKPDIQWAQQEQKRLGIHETGYILIYGGSSHSSQIDGADTSYPIASWQQIIQDCQHKQPELPIVLIKEADDENFVRVLLESCSNLKITSPDDIGKLTAIISGASLMLSIENGPLQLAVAVQTYTIALLSSTDADKLLPKSDKFLAIKSHSGKTVDIPPPTVLEKIWGG”, the “soluble on expression in E. coli” value was “not soluble”.

As to “TRMAPVIMVPGSSASQNRFDSLITELGKETPKKHSVLKLTVQTDGTIKYSGSIAANDNEPFIVIGFANNRDGKANIDKQAVWLNTAFKALVKTYHFNHFYALGHSNGGLIWTLFLERYLKESPKVHIDRLMTIASPYNMESTSTTAKTSMFKELYRYRTGLPESLTVYSIAGTENYTSDGTVPYNSVNYGKYIFQDQVKHFTEITVTGANTAHSDLPQNKQIVSLIRQYLLAETMPDK”, the “soluble on expression in E. coli” value is “not soluble”.

On to “MSLNKKIEELNKLDKKVVLAPMAGITDGDFCRKFKDLFAIVTIGGYNLDSATYKASRDIEKRGRKEFSINLEEFNSYIIEQIKKARESNALVSVNVRFVDIDEAYDKLLTIAKHADIIELNCHCRQPEITSLGIGQELMKNKNLLKEFLTKMKELNKPIFLKIRLNCIPLKELIDNLNYVRDYFDGLHVDCFYPGKPYADMDSLKILAEEFNDKIIIGNNSIDSIEKAKEMLKYSDFVSVARTILKGNVEWIKELNKENIEGHHHHHH”, for which the “soluble on expression in E. coli” value is recorded as “soluble”.

For “MWVEQIEKILTPRTPLILRCRNVPIPLIVSVFVECDMFDESLPISRAMKCLFVSVLCLSVGATAADAKPKIKVVNKTYSVNATTAQDLIQQMDARGPKGFWAYTDWYVKWTGGCDLSVSITYTMPKHKNEAKLDPELRKSWQSFVTALRKHEELHGAHGIQAAQEIEKSKCADGDSVIRKWSEQDKVLDQRTDHGKKDGVVLK”, the “soluble on expression in E. coli” value is on record as “not soluble”.

For the sequence “SLPSYVVPEEPLLSAPTVAELTQAVNGAVVSGDVALREREVMGVLAAGMTADHVLERLTDGMAVITPGDRSDVVLAVASAHAAEGFPSLSCIVLNGGFQLHPAIAALVSGLRLRLPVIATALGTYDTASAAASARGLVTATSQRKIDTALELMDRHVDVAGLLAQLTI”, the “soluble on expression in E. coli” value was “soluble”.

As to “GPLGSSMEDHDDHLRRKFMEFPYVSPTRKQLMVDLMSTVENRLQSQLLPCNLPPDVRNFNNPNGSAEASLHIRSGDKSSPIDFVIGSWIHCKIPTGVSLNITSISGFLNSSTKAPNFVVELIQSSSKSLVLILDLPHRKDLVLNPDYLKEYYQDTALDSHRQSLLKLPEVNPYVSPSLFVRSAFSPTASMLKIDAEEEDKLEEILRDHVSPAAKEVLEVWLERCVKEEEEKIVVGEEERMELERRDKSFRRKSIEDDLDLQFPRMFGEEVSSRVVHAIKEAFGVL”, the “soluble on expression in E. coli” value is “soluble”.

On to “MGSDKIHHHHHHMPQISVTILRGADTIGGSCVKINHGEDSIVLDYGAPLMDSTGVSIDADLASSPSMENGILLDIQQQDTRPPLAYLLSHAHPDHYGLLRSLPKSSNIYLSDSSYSMMTIGNLFYPEALRFSSLEQCRQFTPGKPFQVGPFTVTAFLMDHSAFGACSLLIEVDGKQVYYTGDFRGHGRKSQVSDYIYANVKQPDLMLLEGTTLNGGHSLQFPTEVSVEDAMVSALNEGDGPAFVSASGSNIDRIVSLYNATKRTGKELVIDLYQLYLLEALKKYSPSLPPHKNDHLKVIFPQFQLAIIKSEFGDDFLRYSNRHVNLSKLKGTNYVFRLSPYAMTPYLDSFKEKGVKPKLIYSMWLGYQSKQPKFAEIANKYQESWQYIHTSGHAYLEHLQSFAGNISPKVLVPIHTLNRDKFSSYFDNVRIVENGESIVCE”, for which the “soluble on expression in E. coli” value is “not soluble”.

In the case of “MVKQVGNTEIKENHRASCHCGAVVLELYLPNGIEKPRRCDCSICRRKGAIVGSVPLANIKILKGESELKLYQFNTGTAKHYFCSNCGIYTHHQRRSDPTEYGYNIGCLEGVNPYELGAIEVMDGVNHPADRKKILEHHHHHH”, the “soluble on expression in E. coli” value was “not soluble”.

As to “TRVYDESGKEVGKLFGQKGTFVELDNISPYIQDAVISTEDRGFYQHKGYSIKGIARAVVGKLTFGKIGGGGGGSTITQQLAKNAYLTQEQTLDRKARELFLAIEIEKKYSKKDILAMYLNNSYFGNGVWGVQDAARKYFGVDASQVTVGEAATLAGMLKGPGIYNPIDYI”, the “soluble on expression in E. coli” value was “not soluble”.

Take “MARSLLLPLQILLLSLALETAGEEAQGDKIIDGAPCARGSHPWQVALLSGNQLHCGGVLVNERWVLTAAHCKMNEYTVHLGSDTLGDRRAQRIKASKSFRHPGYSTQTHVNDLMLVKLNSQARLSSMVKKVRLPSRCEPPGTTCTVSGWGTTTSPDVTFPSDLMCVDVKLISPQDCTKVYKDLLENSMLCAGIPDSKKNACNGDSGGPLVCRGTLQGLVSWGTFPCGQPNDPGVYTQVCKFTKWINDTMKKHR”: the “soluble on expression in E. coli” value was “soluble”.

Regarding “SYPSLFAPLDLGFTTLKNRVLMGSMHTGLEEYPDGAERLAAFYAERARHGVALIVSGGIAPDLTGVGMEGGAMLNDASQIPHHRTITEAVHQEGGKIALQILHTGRYSYQPHLVAPSALQAPINRFVPHELSHEEILQLIDNFARCAQLAREAGYDGVEVMGSEGYLINEFLTLRTNQRSDQWGGDYRNRMRFAVEVVRAVRERVGNDFIIIYRLSMLDLVEDGGTFAETVELAQAIEAAGATIINTGIGWHEARIPTIATPVPRGAFSWVTRKLKGHVSLPLVTTNRINDPQVADDILSRGDADMVSMARPFLADAELLSKAQSGRADEINTCIGCNQACLDQIFVGKVTSCLVNPRACHETKMPILPAVQKKNLAVVGAGPAGLAFAINAAARGHQVTLFDAHSEIGGQFNIAKQIPGKEEFYETLRYYRRMIEVTGVTLKLNHTVTADQLQAFDETILASGIVPRTPPIDGIDHPKVLSYLDVLRDKAPVGNKVAIIGCGGIGFDTAMYLSQPGESTSQNIAGFCNEWGIDSSLQQAGGLSPQGMQIPRSPRQIVMLQRKASKPGQGLGKTTGWIHRTTLLSRGVKMIPGVSYQKIDDDGLHVVINGETQVLAVDNVVICAGQEPNRALAQPLIDSGKTVHLIGGCDVAMELDARRAIAQGTRLALEI”, the “soluble on expression in E. coli” value is “soluble”.

As to “MPNRPDLCLGVMSIELRHLRAAVAIAEAGSFTAAANALHITQPALTRTVQQLETSLGVRLFDRTSRALALTEDGAGFVEKVRVILGDLDSAVALYTNRSLVLGFSWLLPDPWAQQVIDDVEKNSRATVVPRRYDDPVAALNNATVDAAVVRRDVPGDEFVQHPLFEEQRIAAVSTASPLATRESIDWAEFGTLPLVINTLSGTTSEDLWPNHDGPVVTCSNFDDWLELIAADRGVGTVPEVARRRVTHRNVQFIPLVGAPPAVVRFVYRRNRVTPLLRVLRDAAIRHSPPPGSVTVGQHD”, the “soluble on expression in E. coli” value is reported as “not soluble”.

For “MVSFKRYELPPLPYNYNALEPYIIEEIMKLHHQKHHNTYVKGANAALEKIEKHLKGEIQIDVRAVMRDFSFNYAGHIMHTIFWPNMAPPGKGGGTPGGRVADLIEKQFGGFEKFKALFSAAAKTVEGVGWGVLAFDPLTEELRILQVEKHNVLMTAGLVPILVIDVWEHAYYLQYKNDRGSYVENWWNVVNWDDVEKRLEQALNNAKPLYLLPQ”, the “soluble on expression in E. coli” value is recorded as “soluble”.

As for “SNALNLPYDEHADAWTQVKKALAAGKRTHKPTLLVFGANWCTDCRALDKSLRNQKNTALIAKHFEVVKIDVGNFDRNLELSQAYGDPIQDGIPAVVVVNSDGKVRYTTKGGELANARKMSDQGIYDFFAKITE”, the “soluble on expression in E. coli” value is “soluble”.

As for “MADPWLSIIGLGEDGPAGLPDASRAALEAAEVVVGGPRHLALVDARARGMEWPVPFDPAPVLALRGRPVAVLASGDPFWHGAGGSLAAALSPGEWRAYPAPGVVALAAARLGWRQEELLALGLHAAPFERLLPELAPGRRGVCTLRDGPAAGALAAFLAAEGWGESRLWVMEALGGPRERVRATTAGAFSLTDVAAPVTVAFEAEGGRAQPRSAGLPDSLFAHDGQITKAPVRALTLAALAPRRGEILWDLGAGSGSVSVEWCLAGGRAVAVELRPERAANIRANAARFALPLEVVEGRALDNLPALPAPDAIFVGGGFDEALFAALPPTARLVVNAVTLETEALLAALQARHGGELLRIELARAAPLGRMRGWEAARPVVQWSLVR”, the “soluble on expression in E. coli” value is reported as “not soluble”.

Regarding “MGSDKIHHHHHHMPENDFFAGIDAQLDTWEFRTLADAFKPRPPLQYAITGLFTLPSLTIVFGAPGTLKSMLLGSAALHVAGGLPWLGRKVKAFPTMWLDMDNGKRRTDERFEALARHLGLNEGTPFFYISMPTPMFNAGDTGDTEAMVNRMISRGIKLLFIDNLGLISPGADENSDAMVKVMGNLRLLAERTDAAVVIIHHQRKKSKQTQTARTGETLRGHSSIEASLDLALLVEREFDSDIITVHSTKTRDTEVRPFAAEWRYEHKPGTDELETAGFVSAEGENSSETVLEKAIIETVSSNALINQTKLKDDVMKLTGIGRNQVINMIRALEVRKALNVKPGSNNEKLYYIE”, the “soluble on expression in E. coli” value was “not soluble”.

Take “MLNFLSISSEPKIKSLAIGKFDGLHLGHQALFKELKDPKALLIIEKKHYTKGYLTPLKYRAKLVGMPLFFVYLEEISQLNALDFLDLLKKKFPHLERLVVGYDFRFGHERQNDALFLKERFEKTIIVPEVKVQEISVHSKMIKLALSHGDLSLANKLLGRPYEVCGEVISDQGLGHKELAPTLNIKTKDFILPSFGVYASLVKIKDPIYQKSVSFIGNRLSTDQNFAIECHVLDTIIENPPQEIALRWVQKIRDNMRFSSLKELKNQIQQDILRAKEILR”: the “soluble on expression in E. coli” value is reported as “not soluble”.

Consider “SEADASVDMFSKVLEHQLLQTTKLVEEHLDSEIQKLDQMDEDELERLKEKRLQALRKAQQQKQEWLSKGHGEYREIPSERDFFQEVKESENVVCHFYRDSTFRCKILDRHLAILSKKHLETKFLKLNVEKAPFLCERLHIKVIPTLALLKDGKTQDYVVGFTDLGNTDDFTTETLEWRLGSSDILNYSGNLMEPPFQNQKKFGTNFTKLEKKTIRGKKYDSDSDDD”, for which the “soluble on expression in E. coli” value was “soluble”.

Take “MMGLLSTIRGKKEPVVGNGIGSAQVGPLNAKTKKLVIQEWPRVLAQCPELFTEIWHKSATRSTSIKLAFGIAENESPMQNAAFLGLSSTIQAFFYKLIITYELNDDQVREACEQLGARHVDFISRGFNSHFWDIFLVCMAEKIDETLSAYIPDEDKRNEMILAWQRVINSIVHQMRNGYSDRRKQQLGGTKGGSNNGF”: the “soluble on expression in E. coli” value is given as “not soluble”.
